Abundance fitness data for 58 variants are collected here from the Human Domainome abundance scans (Beltran et al. 2025).

B1: Myocardin, residues 363 to 406; numbered along this chain, Q8IZQ8 (parent)
chain: KPGPLPPNLDDLKVSELRQQLRIRGLPVSGTKTALMDRLRPFQD

± gives the uncertainty stated by the source.

The variants in the data set derive from B1. The data set can be described thus: abundance fitness (aPCA) (normalised: wild type 0, dead -1); higher = more abundant; growth selection in yeast, the domain comes from the species named. The conditions noted are these: Homo sapiens.
Consider KPGPLPPNLDDLKVSELRQQLRIRGLPVSGTKTALMDRLRPCQD [F42C], for which the abundance fitness was -0.138 ± 0.082.
For the variant KPGPLPPNLDDLKVSELRQQLRIRGLPVSGTKTALMDRLRPGQD [F42G], the abundance fitness is -0.278 ± 0.057.
As to KPGPLPPNLDDLKVSELRQQLRIRGLPVSGTKTALMDRLRPAQD [F42A], the abundance fitness was determined as 0.067 ± 0.062.
The figure for KPGPLPPNLDDLKVSELRQQLRIRGLPVSGTKTALMDRLRPRQD [F42R] is -0.12 ± 0.07; for KPGPLPPNLDDLKVSELRQQLRIRGLPVSGTKTALMDRLRPDQD [F42D] it is -0.061 ± 0.18; for KPGPLPPNLDDLKVSELRQQLRIRGLPVSGTKTALMDRLRPWQD [F42W] it is -0.124 ± 0.065.
The figure for KPGPLPPNLDDLKVSELRQQLRIRGLPVSGTKTALMDRLRPQQD [F42Q] is -0.06 ± 0.093; for KPGPLPPNLDDLKVSELRQQLRIRGLPVSGTKTALMDRLRPNQD [F42N] it is -0.736 ± 0.36; for KPGPLPPNLDDLKVSELRQQLRIRGLPVSGTKTALMDRLRPLQD [F42L] it is 0.111 ± 0.068.
As for KPGPLPPNLDDLKVSELRQQLRIRGLPVSGTKTALMDRLRPHQD [F42H], the abundance fitness came to 0.139 ± 0.12.
As to KPGPLPPNLDDLKVSELRQQLRIRGLPVSGTKTALMDRLRPKQD [F42K], the abundance fitness is -0.09 ± 0.14.
In the case of KPGPLPPNLDDLKVSELRQQLRIRGLPVSGTKTALMDRLRPVQD [F42V], the abundance fitness was -0.211 ± 0.074.
The figure for KPGPLPPNLDDLKVSELRQQLRIRGLPVSGTKTALMDRLRPMQD [F42M] is -0.242 ± 0.1; for KPGPLPPNLDDLKVSELRQQLRIRGLPVSGTKTALMDRLRPSQD [F42S] it is 0.03 ± 0.092.
The figure for KPGPLPPNLDDLKVSELRQQLRIRGLPVSGTKTALMDRLRPEQD [F42E] is -0.148 ± 0.086.
The figure for KPGPLPPNLDDLKVSELRQQLRIRGLPVSGTKTALMDRLRPYQD [F42Y] is -0.102 ± 0.1; for KPGPLPPNLDDLKVSELRQQLRIRGLPVSGTKTALMDRLRPPQD [F42P] it is -0.02 ± 0.086.
Turning to KPGPLPPNLDDLKVSELRQQLRIRGLPVSGTKTALMDRLRSFQD [P41S], the abundance fitness was 0.064 ± 0.11.
Turning to KPGPLPPNLDDLKVSELRQQLRIRGLPVSGTKTALMDRLRFFQD [P41F], the abundance fitness was -0.27 ± 0.12.
With KPGPLPPNLDDLKVSELRQQLRIRGLPVSGTKTALMDRLRTFQD [P41T] the figure was -0.351 ± 0.12.
In the case of KPGPLPPNLDDLKVSELRQQLRIRGLPVSGTKTALMDRLRRFQD [P41R], the abundance fitness was -0.256 ± 0.058.
The figure for KPGPLPPNLDDLKVSELRQQLRIRGLPVSGTKTALMDRLRKFQD [P41K] is -0.305 ± 0.077; for KPGPLPPNLDDLKVSELRQQLRIRGLPVSGTKTALMDRLRYFQD [P41Y] it is -0.455 ± 0.13; for KPGPLPPNLDDLKVSELRQQLRIRGLPVSGTKTALMDRLRMFQD [P41M] it is -0.231 ± 0.3.
The figure for KPGPLPPNLDDLKVSELRQQLRIRGLPVSGTKTALMDRLRLFQD [P41L] is -0.132 ± 0.082.
On to KPGPLPPNLDDLKVSELRQQLRIRGLPVSGTKTALMDRLRHFQD [P41H], for which the abundance fitness is -0.14 ± 0.11.
With KPGPLPPNLDDLKVSELRQQLRIRGLPVSGTKTALMDRLRWFQD [P41W] the figure was -0.161 ± 0.09; with KPGPLPPNLDDLKVSELRQQLRIRGLPVSGTKTALMDRLRVFQD [P41V], -0.11 ± 0.087.
As for KPGPLPPNLDDLKVSELRQQLRIRGLPVSGTKTALMDRLRGFQD [P41G], the abundance fitness is -0.084 ± 0.055.
With KPGPLPPNLDDLKVSELRQQLRIRGLPVSGTKTALMDRLRIFQD [P41I] the figure was -0.001 ± 0.21; with KPGPLPPNLDDLKVSELRQQLRIRGLPVSGTKTALMDRLRPFRD [Q43R], -0.232 ± 0.059.
With KPGPLPPNLDDLKVSELRQQLRIRGLPVSGTKTALMDRLRPFPD [Q43P] the figure was -0.625 ± 0.1.
Turning to KPGPLPPNLDDLKVSELRQQLRIRGLPVSGTKTALMDRLRPFTD [Q43T], the abundance fitness turned out to be 0.1 ± 0.094.
For KPGPLPPNLDDLKVSELRQQLRIRGLPVSGTKTALMDRLRPFCD [Q43C], the abundance fitness was -0.005 ± 0.13.
The figure for KPGPLPPNLDDLKVSELRQQLRIRGLPVSGTKTALMDRLRPFND [Q43N] is -0.213 ± 0.18; for KPGPLPPNLDDLKVSELRQQLRIRGLPVSGTKTALMDRLRPFID [Q43I] it is -0.109 ± 0.14; for KPGPLPPNLDDLKVSELRQQLRIRGLPVSGTKTALMDRLRPFFD [Q43F] it is 0.028 ± 0.21.
With KPGPLPPNLDDLKVSELRQQLRIRGLPVSGTKTALMDRLRPFSD [Q43S], the abundance fitness is -0.061 ± 0.083.
In the case of KPGPLPPNLDDLKVSELRQQLRIRGLPVSGTKTALMDRLRPFKD [Q43K], the abundance fitness is -0.503 ± 0.29.
On to KPGPLPPNLDDLKVSELRQQLRIRGLPVSGTKTALMDRLRPFMD [Q43M], for which the abundance fitness is -0.031 ± 0.07.
The figure for KPGPLPPNLDDLKVSELRQQLRIRGLPVSGTKTALMDRLRPFAD [Q43A] is -0.042 ± 0.1; for KPGPLPPNLDDLKVSELRQQLRIRGLPVSGTKTALMDRLRPFWD [Q43W] it is -0.106 ± 0.074.
The figure for KPGPLPPNLDDLKVSELRQQLRIRGLPVSGTKTALMDRLRPFHD [Q43H] is -0.376 ± 0.17.
KPGPLPPNLDDLKVSELRQQLRIRGLPVSGTKTALMDRLRPFGD [Q43G]: the abundance fitness is -0.152 ± 0.064.
The figure for KPGPLPPNLDDLKVSELRQQLRIRGLPVSGTKTALMDRLRPFQN [D44N] is -0.236 ± 0.23; for KPGPLPPNLDDLKVSELRQQLRIRGLPVSGTKTALMDRLRPFQR [D44R] it is -0.03 ± 0.2.
With KPGPLPPNLDDLKVSELRQQLRIRGLPVSGTKTALMDRLRPFQF [D44F] the figure was -0.325 ± 0.25.
In the case of KPGPLPPNLDDLKVSELRQQLRIRGLPVSGTKTALMDRLRPFQK [D44K], the abundance fitness is 0.195 ± 0.14.
On to KPGPLPPNLDDLKVSELRQQLRIRGLPVSGTKTALMDRLRPFQY [D44Y], for which the abundance fitness was -0.379 ± 0.13.
The figure for KPGPLPPNLDDLKVSELRQQLRIRGLPVSGTKTALMDRLRPFQQ [D44Q] is -0.206 ± 0.18; for KPGPLPPNLDDLKVSELRQQLRIRGLPVSGTKTALMDRLRPFQW [D44W] it is -0.218 ± 0.34.
As for KPGPLPPNLDDLKVSELRQQLRIRGLPVSGTKTALMDRLRPFQL [D44L], the abundance fitness is -0.494 ± 0.22.
With KPGPLPPNLDDLKVSELRQQLRIRGLPVSGTKTALMDRLRPFQE [D44E] the figure was -0.031 ± 0.19.
For the variant KPGPLPPNLDDLKVSELRQQLRIRGLPVSGTKTALMDRLRPFQS [D44S], the abundance fitness is -0.313 ± 0.15.
Take KPGPLPPNLDDLKVSELRQQLRIRGLPVSGTKTALMDRLRPFQG [D44G]: the abundance fitness is 0 ± 0.064.
The figure for KPGPLPPNLDDLKVSELRQQLRIRGLPVSGTKTALMDRLRPFQC [D44C] is -0.297 ± 0.21; for KPGPLPPNLDDLKVSELRQQLRIRGLPVSGTKTALMDRLRPFQV [D44V] it is 0.038 ± 0.13; for KPGPLPPNLDDLKVSELRQQLRIRGLPVSGTKTALMDRLRPFQA [D44A] it is -0.086 ± 0.13.
